Measured values as given in article PMC4395418, “The Aspartate-Less Receiver (ALR) Domains: Distribution, Structure and Function” (PLoS Pathogens, 2015).
Numbering of substitutions follows the chain as printed.

Tests used:
RitR FL L90A = RitR FL L90A (Streptococcus pneumoniae R800, UniProt A0ACD7PPZ9 1-229, L90A); experiment: EMSA; 20 mM HEPES pH 7.2, 5 mM MgCl2, 1 mM CaCl2, 0.1 mM EDTA, 10 mM DTT, 10% glycerol, 0.5 uM DNA, 800 ng poly(dI-dC) in 20 ul, room temperature 10 min; 4% native TAE PAGE; conditions: protein: recombinant; tags: His6-SUMO removed by ULP1; chain copies: 2; label: 5' HEX on strand 1; blunt
RitR FL L86A = RitR FL L86A (Streptococcus pneumoniae R800, UniProt A0ACD7PPZ9 1-229, L86A); experiment: as above; conditions: protein: recombinant; tags: His6-SUMO removed by ULP1; chain copies: 2; label: 5' HEX on strand 1; blunt
RitR FL F96G = RitR FL F96G (Streptococcus pneumoniae R800, UniProt A0ACD7PPZ9 1-229, F96G); experiment: as above; conditions: protein: recombinant; tags: His6-SUMO removed by ULP1; chain copies: 2; label: 5' HEX on strand 1; blunt
RitR FL L86A/V93A = RitR FL L86A/V93A (Streptococcus pneumoniae R800, UniProt A0ACD7PPZ9 1-229, L86A;V93A); experiment: as above; conditions: protein: recombinant; tags: His6-SUMO removed by ULP1; chain copies: 2; label: 5' HEX on strand 1; blunt
RitR FL wild-type = RitR FL wild-type (Streptococcus pneumoniae R800, UniProt A0ACD7PPZ9 1-229); experiment: EMSA; up to 6.6 uM protein; 20 mM HEPES pH 7.2, 5 mM MgCl2, 1 mM CaCl2, 0.1 mM EDTA, 10 mM DTT, 10% glycerol, 0.5 uM DNA, 800 ng poly(dI-dC) in 20 ul, room temperature 10 min; 4% native TAE PAGE; conditions: protein: recombinant; tags: His6-SUMO removed by ULP1; chain copies: 2; label: 5' HEX on strand 1; blunt
RitR FL Y100A = RitR FL Y100A (Streptococcus pneumoniae R800, UniProt A0ACD7PPZ9 1-229, Y100A); experiment: EMSA; binding seen at 0.22 uM protein; 20 mM HEPES pH 7.2, 5 mM MgCl2, 1 mM CaCl2, 0.1 mM EDTA, 10 mM DTT, 10% glycerol, 0.5 uM DNA, 800 ng poly(dI-dC) in 20 ul, room temperature 10 min; 4% native TAE PAGE; conditions: protein: recombinant; tags: His6-SUMO removed by ULP1; chain copies: 2; label: 5' HEX on strand 1; blunt
RitR FL D81A = RitR FL D81A (Streptococcus pneumoniae R800, UniProt A0ACD7PPZ9 1-229, D81A); experiment: as above; conditions: protein: recombinant; tags: His6-SUMO removed by ULP1; chain copies: 2; label: 5' HEX on strand 1; blunt
[1] = target: the molecule itself; experiment: SEC; RitRFL wild-type and mutants; Agilent 1220 HPLC, BioBasic SEC-300A column, 50 mM TRIS pH 8.0, 150 mM NaCl, 10 mM DTT; proteins pre-treated with 10 mM DTT; 0.5 ml/min, ambient temperature
[2] = target: the molecule itself; experiment: SEC; purified 15N-labelled RitRALR (ALR domain only) wild-type and Ala mutants; oligomeric state

B1: BS2 33-mer (dsDNA)
DNA 1: ATTTTATTGACAGATTAGAAAAATAATGTTACA
DNA 2: TGTAACATTATTTTTCTAATCTGTCAATAAAAT
binding result (RitR FL L90A): binds
binding result (RitR FL L86A): binds
binding result (RitR FL F96G): no binding
binding result (RitR FL L86A/V93A): binds
binding result (RitR FL wild-type): no binding
binding result (RitR FL Y100A): binds
binding result (RitR FL D81A): binds

B2: RitR full-length, Leu86 to Ala Gate mutant (natural protein)
chain: MGKRILLLEKERNLAHFLSLELQKEQYRVDLVEEGQKALSMALQTDYDLILLNVNLGDMMAQDFAEKLSRTKPASVIMILDHWEDAQEELEVVQRFAVSYIYKPVLIENLVARISAIFRGRDFIDQHCSLMKVPRTYRNLRIDVEHHTVYRGEEMIALTRREYDLLATLMGSKKVLTREQLLESVWKYESATETNIVDVYIRYLRSKLDVKGQKSYIKTVRGVGYTMQE
notes: RitR, Streptococcus pneumoniae strain R800, full-length, Gate residue Leu86 changed to Ala; also called RitRFL Leu86 mutant; source: E. coli BL21(DE3) or BL21(DE3)-Star, purified (Ni2+ agarose, ULP1 cleavage, subtractive Ni2+ column); not shown: His6, N-terminal, cleaved; SUMO, N-terminal, cleaved
stoichiometry N [1]: 2

B3: RitR full-length, Leu86/Val93 double mutant (natural protein)
chain: B2 chain with V93A
notes: RitR, Streptococcus pneumoniae strain R800, full-length, Val93 mutant combined with a Leu86 mutation (Ala); also called RitRFL Leu86/Val93 double mutant; source: E. coli BL21(DE3) or BL21(DE3)-Star, purified (Ni2+ agarose, ULP1 cleavage, subtractive Ni2+ column); not shown: His6, N-terminal, cleaved; SUMO, N-terminal, cleaved
stoichiometry N [1]: 2

B4: RitR full-length, Val93 to Ala Gate mutant (natural protein)
chain: B2 chain with A86L, V93A
notes: RitR, Streptococcus pneumoniae strain R800, full-length, Ala substitution of Gate residue Val93; also called RitRFL Val93 mutant; source: E. coli BL21(DE3) or BL21(DE3)-Star, purified (Ni2+ agarose, ULP1 cleavage, subtractive Ni2+ column); not shown: His6, N-terminal, cleaved; SUMO, N-terminal, cleaved
stoichiometry N [1]: 2

B5: RitR full-length, Leu90 to Ala Gate mutant (natural protein)
chain: B2 chain with A86L, L90A
notes: RitR, Streptococcus pneumoniae strain R800, full-length, Gate residue Leu90 changed to Ala; also called RitRFL Leu90 mutant; source: E. coli BL21(DE3) or BL21(DE3)-Star, purified (Ni2+ agarose, ULP1 cleavage, subtractive Ni2+ column); not shown: His6, N-terminal, cleaved; SUMO, N-terminal, cleaved
stoichiometry N [1]: 2

B6: RitR ALR (REC) receiver domain, Leu86 to Ala mutant (domain or fragment)
chain: MGKRILLLEKERNLAHFLSLELQKEQYRVDLVEEGQKALSMALQTDYDLILLNVNLGDMMAQDFAEKLSRTKPASVIMILDHWEDAQEELEVVQRFAVSYIYKPVLIENLVARISAIFRGRDFIG
notes: RitR, Streptococcus pneumoniae strain R800, ALR (REC) domain, amino acids Met1-Ile124, Ala substitution of Leu86; extra C-terminal glycine residue; PDB 4LZL is the wild-type parent of the same limits; also called RitRALR Leu86 mutant; source: E. coli BL21 DE3, 15N-labelled in M9 medium, purified (Ni-NTA, ULP1 cleavage, subtractive Ni-NTA); not shown: His6, N-terminal, cleaved; SUMO, N-terminal, …
stoichiometry N [2]: 2

B7: RitR ALR (REC) receiver domain, Leu90 to Ala mutant (domain or fragment)
chain: B6 chain with A86L, L90A
notes: RitR, Streptococcus pneumoniae strain R800, ALR (REC) domain, amino acids Met1-Ile124, Leu90 changed to Ala; extra C-terminal glycine residue; PDB 4LZL is the wild-type parent of the same limits; also called RitRALR Leu90>Ala mutant; Leu90 mutant; source: E. coli BL21 DE3, 15N-labelled in M9 medium, purified (Ni-NTA, ULP1 cleavage, subtractive Ni-NTA); not shown: His6, N-terminal, cleaved; SUMO, …
stoichiometry N [2]: 2
